Results from PMC4319926, “Deciphering the Stepwise Binding Mode of HRG1β to HER3 by Surface Plasmon Resonance and Interaction Map” (PLoS ONE, 2015).

Tests used:
Details in all cases: both partners purified
[1] = target: T1, human HER3 extracellular domain (human, UniProt P21860 20-643); test: SPR; assay C: Biacore T200, 25°C; HER3 bound to mAb208 captured by immobilised rabbit anti-mouse antibody on CM5; HRG1β injected at 105-1.3 nM, 60 µl/min, 5 min association, 10 min dissociation; 10 mM HEPES pH 7.4, 150 mM NaCl, 1 mM EDTA, Tween 20, 1 mg/ml carboxymethyldextran; evaluated by 1:1 Langmuir fit (apparent), two-state reaction model and Interaction Map
T1 construct: HER3 (ErbB3) receptor extracellular domain, human, MW 68 kDa; Printed MW 68 kDa; also called ECD3; HER3-ECD; source: from Dr. Birgit Bossenmaier, Roche Diagnostics GmbH, Penzberg
T1 sequence (P21860 20-643): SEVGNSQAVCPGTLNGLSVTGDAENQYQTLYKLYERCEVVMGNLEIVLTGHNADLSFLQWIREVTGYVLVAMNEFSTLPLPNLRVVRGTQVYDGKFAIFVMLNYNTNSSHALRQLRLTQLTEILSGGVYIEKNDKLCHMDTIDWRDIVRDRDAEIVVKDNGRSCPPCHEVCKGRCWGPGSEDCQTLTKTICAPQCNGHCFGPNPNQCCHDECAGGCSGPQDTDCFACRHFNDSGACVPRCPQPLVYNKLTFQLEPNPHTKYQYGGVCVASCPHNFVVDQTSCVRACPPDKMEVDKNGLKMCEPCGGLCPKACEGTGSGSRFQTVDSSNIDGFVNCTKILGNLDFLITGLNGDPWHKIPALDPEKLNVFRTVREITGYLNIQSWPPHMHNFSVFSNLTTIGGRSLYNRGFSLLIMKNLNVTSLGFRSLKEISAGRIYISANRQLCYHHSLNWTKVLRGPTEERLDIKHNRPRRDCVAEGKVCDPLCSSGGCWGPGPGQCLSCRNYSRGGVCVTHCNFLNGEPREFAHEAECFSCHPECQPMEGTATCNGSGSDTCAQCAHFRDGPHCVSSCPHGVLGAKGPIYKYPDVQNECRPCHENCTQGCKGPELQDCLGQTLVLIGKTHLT

[2] = target: T2, HER3-Avi-biotin (human, UniProt P21860 20-643, single biotin on the C-terminal Avi-Tag); test: SPR; assay D: Biacore T200, 25°C; HER3-Avi-biotin captured via streptavidin on CAP chip, no mAb208; HRG1β injected at 105-1.3 nM, 60 µl/min, 5 min association, 10 min dissociation; same sample buffer; evaluated by 1:1 Langmuir fit, two-state reaction model and Interaction Map
T2 construct: HER3 (ErbB3) extracellular domain with C-terminal Avi-Tag, singly biotinylated, MW 70 kDa; Printed MW 70 kDa; It was captured through streptavidin on a Biotin CAPture chip; also called bi-ECD3; biotinylated HER3-Avi; source: gift of pRED, Roche Diagnostics GmbH (Dr. Jürgen Schanzer); not shown: Avi-Tag, C-terminal, kept
T2 sequence (P21860 20-643): as above

[3] = target: T1, human HER3 extracellular domain; test: SPR; assay C: Biacore T200, 25°C; HER3 bound to mAb208 captured by immobilised rabbit anti-mouse antibody on CM5; HRG1β injected at 105-1.3 nM, 60 µl/min, 5 min association, 10 min dissociation; 10 mM HEPES pH 7.4, 150 mM NaCl, 1 mM EDTA, Tween 20, 1 mg/ml carboxymethyldextran; evaluated by 1:1 Langmuir fit (apparent), two-state reaction model and Interaction Map; remark: listed apart in the source

B1: human heregulin β1 (ligand, UniProt Q02297-6 20-246, looked up)
chain: SGKKPESAAGSQSPALPPRLKEMKSQESAAGSKLVLRCETSSEYSSLRFKWFKNGNELNRKNKPQNIKIQKKPGKSELRINKASLADSGEYMCKVISKLGNDSASANITIVESNEIITGMPASTEGAYVSSESPIRISVSTEGANTSSSTSTSTTGTSHLVKCAEKEKTFCVNGGECFMVKDLSNPSRYLCKCPNEFTGDRCQNYVMASFYKHLGIEFMEAEELYQK
notes: heregulin β1 (neuregulin-1, beta 1 isoform), human, MW 25 kDa; The printed MW of 25 kDa is larger than an EGF-like domain alone; also called HRG1β; Heregulin 1 beta; source: from Dr. Birgit Bossenmaier, Roche Diagnostics GmbH, Penzberg
stoichiometry N [1]: 0.5 | Kd [2]: 0.38 nM | koff [2]: 0.0046 s⁻¹ | kon [2]: 1.2e+07 M⁻¹ s⁻¹ | stoichiometry N [2]: 0.84 | Kd [3]: 0.33 nM | koff [3]: 0.04 s⁻¹ | kon [3]: 1.2e+08 M⁻¹ s⁻¹ | stoichiometry N [3]: 0.56
